Laboratory results from patent US20140107021A1 (priority 2010, published 2014).
Square brackets hold non-standard residues; d marks the D form. Ends that are not written are not given here. * marks the point of attachment. PEG 40 kDa = PEG of 40 kDa covalently attached to Cys; C16 acyl = 16 carbon fatty acyl group; Palmitoyl = CCCCCCCCCCCCCCCC(=O)*; Myristoyl = CCCCCCCCCCCCCC(=O)*; Aib = CC(C)(N)C(=O)O

Key:
Format in all cases: cell-based
[1] = target: T1, GLP-1 receptor (Homo sapiens, UniProt P43220); test: cAMP induction at the GLP-1 receptor (agonist activity), firefly luciferase reporter assay in HEK293 cells
T1 construct: expressed in transfected cells; host or cells: HEK293
T1 sequence (P43220 24-463): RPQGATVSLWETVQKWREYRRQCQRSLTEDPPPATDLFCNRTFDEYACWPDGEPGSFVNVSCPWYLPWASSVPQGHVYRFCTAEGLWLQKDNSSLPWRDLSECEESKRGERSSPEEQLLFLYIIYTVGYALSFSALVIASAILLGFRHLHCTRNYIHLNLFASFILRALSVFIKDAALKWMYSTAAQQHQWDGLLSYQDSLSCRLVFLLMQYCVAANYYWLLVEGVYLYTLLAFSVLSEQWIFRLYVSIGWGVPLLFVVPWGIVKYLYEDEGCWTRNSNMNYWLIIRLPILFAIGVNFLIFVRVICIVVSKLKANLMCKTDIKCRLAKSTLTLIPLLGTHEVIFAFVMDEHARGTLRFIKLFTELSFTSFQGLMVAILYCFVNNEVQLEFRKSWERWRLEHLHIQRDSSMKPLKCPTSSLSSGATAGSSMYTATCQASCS
Source text: (§1) HEK293 cells co-transfected with the receptor and luciferase gene linked to a cAMP responsive element were employed for the bioassay.
(§2) All EC50s and IC50s are reported in the following examples in nM, unless indicated otherwise.

[2] = target: T2, GIP receptor (Homo sapiens, UniProt P48546); test: cAMP induction at the GIP receptor (agonist activity), luciferase reporter assay in HEK293 cells
T2 construct: expressed in transfected cells; host or cells: HEK293
T2 sequence (P48546 22-466): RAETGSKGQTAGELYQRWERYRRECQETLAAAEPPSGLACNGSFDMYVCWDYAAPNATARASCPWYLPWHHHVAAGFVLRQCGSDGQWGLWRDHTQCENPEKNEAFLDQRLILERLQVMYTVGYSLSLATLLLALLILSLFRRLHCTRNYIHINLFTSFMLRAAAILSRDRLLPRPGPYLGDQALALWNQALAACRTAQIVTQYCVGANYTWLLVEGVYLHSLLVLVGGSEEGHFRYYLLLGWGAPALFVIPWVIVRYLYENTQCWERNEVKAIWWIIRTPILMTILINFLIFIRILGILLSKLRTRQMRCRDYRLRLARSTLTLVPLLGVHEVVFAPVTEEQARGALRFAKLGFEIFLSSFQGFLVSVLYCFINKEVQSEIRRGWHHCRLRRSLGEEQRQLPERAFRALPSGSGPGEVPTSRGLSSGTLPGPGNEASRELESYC
Source text: as §1, §2

[3] = target: glucagon receptor (Homo sapiens, UniProt P47871); test: cAMP induction at the glucagon receptor (agonist activity), luciferase reporter assay in HEK293 cells; parameters: expressed in transfected cells; host or cells: HEK293
glucagon receptor, sequence (P47871 26-477): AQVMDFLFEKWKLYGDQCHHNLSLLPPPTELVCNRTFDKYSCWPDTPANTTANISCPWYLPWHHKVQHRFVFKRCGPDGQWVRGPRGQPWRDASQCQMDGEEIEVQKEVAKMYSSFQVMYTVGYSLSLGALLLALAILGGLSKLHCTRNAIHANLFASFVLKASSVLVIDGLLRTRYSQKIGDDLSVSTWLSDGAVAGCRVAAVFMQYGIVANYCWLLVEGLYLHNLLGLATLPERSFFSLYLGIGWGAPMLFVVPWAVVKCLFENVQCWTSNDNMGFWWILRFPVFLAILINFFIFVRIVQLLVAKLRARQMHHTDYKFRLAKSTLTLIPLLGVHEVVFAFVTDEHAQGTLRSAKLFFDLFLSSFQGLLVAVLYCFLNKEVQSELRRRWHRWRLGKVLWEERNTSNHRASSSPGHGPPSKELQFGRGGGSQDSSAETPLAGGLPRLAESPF
Source text: as §1, §2

[4] = Table 7, relative to the native ligand of the receptor
[5] = Table 6, relative to the native ligand at the receptor

Molecule | % Relative Activity GLP-1R ([1]; Table 9) [%] | % Relative Activity at GIPR ([2]; Table 9) [%] | % Relative Activity at GR ([3]; Table 9) [%] | also measured
CC[C@H](C)[C@H](NC(=O)[C@H](CO)NC(=O)[C@H](Cc1ccc(O)cc1)NC(=O)[C@H](CC(=O)O)NC(=O)[C@H](CO)NC(=O)[C@@H](NC(=O)[C@H](Cc1ccccc1)NC(=O)[C@@H](NC(=O)CNC(=O)[C@H](CCC(=O)O)NC(=O)C(C)(C)NC(=O)[C@@H](N)Cc1ccc(O)cc1)[C@@H](C)O)[C@@H](C)O)C(=O)N[C@@H](Cc1ccc(O)cc1)C(=O)N[C@@H](CC(C)C)C(=O)N[C@@H](CC(=O)O)C(=O)N[C@@H](CCCCN)C(=O)N[C@@H](CCC(N)=O)C(=O)N[C@@H](C)C(=O)N[C@@H](C)C(=O)NC(C)(C)C(=O)N[C@@H](CCC(=O)O)C(=O)N[C@@H](Cc1ccccc1)C(=O)N[C@H](C(=O)N[C@@H](CC(N)=O)C(=O)N[C@@H](Cc1c[nH]c2ccccc12)C(=O)N[C@@H](CC(C)C)C(=O)N[C@@H](CC(C)C)C(=O)N[C@@H](C)C(=O)NCC(=O)NCC(=O)N1CCC[C@H]1C(=O)N[C@@H](CO)C(=O)N[C@@H](CO)C(=O)NCC(=O)N[C@@H](C)C(=O)N1CCC[C@H]1C(=O)N1CCC[C@H]1C(=O)N1CCC[C@H]1C(=O)N[C@@H](CO)C(=O)N[C@H](CCCCN)C(N)=O)C(C)C [mt-398] |  |  |  | EC50 ([1]; Table 4, read-out: GLP-1R EC50): 7.8 pM; EC50 ([2]; Table 4, read-out: GIPR EC50): 3.1 pM; EC50 ([3]; Table 4, read-out: GR EC50): 3740 pM
Chimera2-CEXK40(C16) (H[Aib]QGTFTSDYSKYLDEQAAKEFIAWLMNGGPSSGAPPPSK(Palmitoyl)-NH2) [MT-364] |  |  |  | % Relative Activity GLP-1R [1, 4]: 355%; % Relative Activity at GIPR [2, 4]: 16%; % Relative Activity at GR [3, 4]: 350%
E3C24-PEG-K10-C14 (Y[Aib]EGTFTSDK(Myristoyl)SIYLDKQAA[Aib]EFVC(PEG 40 kDa)WLLAGGPSSGAPPPS-NH2) [MT-341] | 14.6 | 27.4 | 0.01 | 
E3C24-PEG-K40-C14 (Y[Aib]EGTFTSDYSIYLDKQAA[Aib]EFVC(PEG 40 kDa)WLLAGGPSSGAPPPSK(Myristoyl)-NH2) [MT-353] | 128.6 | 102.9 | 0.17 | 
E3K16AIB2,20K10(C16) (Y[Aib]EGTFTSDK(C16 acyl)SIYLDKQAA[Aib]EFVNWLLAGGPSSGAPPPS-NH2) [MT-270] | 211.8 | 163.3 | 0.06 | % Relative Activity GLP-1R [1, 5]: 212%; % Relative Activity at GIPR [2, 5]: 163%; % Relative Activity at GR [3, 5]: 0.1%
K40-C16 (Y[Aib]QGTFTSDYSIYLDKQAA[Aib]EFVNWLLAGGPSSGAPPPSK(C16 acyl)-NH2) [MT-278] | 459.5 | 846.4 | 588.4 | 
